Test results reported in patent US20030180282A1, “Method of treatment of thrombotic events” (priority 2002, published 2003).

Key:
platelets [1] = test: PFA-100 platelet function analyzer, closure time; assay type: cell-based, human; settings: TNK 12 μg/mL, t-PA 4 μg/mL
Experimental: (§1) Blood samples for the in vitro study were obtained from 9 healthy volunteers. None of the subjects smoked or had hypertension, diabetes, or an abnormal hematocrit. None had received aspirin or any other antiplatelet drugs. All subjects underwent blood sampling after at least 30 minutes of rest and 2 or more hours of fasting. Blood was drawn from an antecubital vein between 8 am and 10 am in order to avoid any diurnal influence. A 21-gauge butterfly needle was used to draw blood into a tube containing 3.8% sodium citrate (1:9 volume); the first 1.5 mL of free running blood was discarded. One tube was kept as an internal control. A second tube was incubated with tenecteplase (TNK) for 30 minutes at room temperature in order to achieve a final concentration of 12 μg/mL. The third tube was similarly incubated with alteplase (t-PA) to achieve a concentration of 4 μg/mL. The concentrations of TNK and t-PA that were chosen approximated conventional plasma levels observed in patients receiving TNK and t-PA bolus (30 mg, and 15 mg, respectively; data on file, Genentech, Inc., South San Francisco, Calif.). Fresh solutions of TNK and t-PA were prepared in Dulbecco's phosphate buffered saline (DPBS) ex tempore on the morning of the platelet studies.
The PFA-100™ (Dade Behring, Deerfield, Ill.) is a high shear-inducing platelet function analyzer that simulates primary hemostasis after injury to a small vessel under flow conditions (see, e.g. Kundu, S. K. et al. (1996) Clin. Appl. Thromb. Hemost. 2:241-249). The device provides a constant negative pressure that aspirates a whole blood-citrate mixture, which comes into contact with a collagen-coated membrane and then passes through an aperture. The time required to obtain occlusion of the aperture is digitally recorded and is a measure of shear-induced platelet aggregation.
(§2) For all comparisons, statistical analyses were done by using repeated measures ANOVA. […] Normally distributed data were expressed as mean±SE, and skewed data as median (range). […]

platelets [2] = test: rapid platelet-function assay (Ultegra); assay type: cell-based, human; settings: TNK 12 μg/mL, t-PA 4 μg/mL
Experimental: as §1
With rapid platelet-function assay (RPFA (Ultegra®); Accumetrics, Inc., San Diego, Calif.), polystyrene beads coated with fibrinogen are placed in a cartridge along with a peptide that activates the thrombin receptor. A whole blood citrate mixture is added to the cartridge, and agglutination between platelets and coated beads is recorded. The data mirror turbidometric platelet aggregation and reflect the degree of platelet glycoprotein IIb/IIIa blockade.
For all comparisons, statistical analyses were done by using repeated measures ANOVA. Post hoc comparison was performed by use of the Bonferroni t-test to identify specific differences in platelet aggregation and receptor expression between patients treated with TNK and t-PA, and controls. […] Normally distributed data were expressed as mean±SE, and skewed data as median (range). […]

[3] = test system: platelet-derived biomarkers; test: ASSENT-2 platelet substudy: ELISA of platelet-derived biomarkers in plasma of AMI patients; assay type: in vivo, human
Experimental: Forty-one patients with ST-segment elevation AMI enrolled in a single ASSENT-2 site (Rashid Hospital, Dubai, United Arab Emirates) were studied. The inclusion and exclusion criteria of ASSENT-2 have been previously reported ([no authors listed] (1999) Lancet 354:716-722). Briefly, patients included in the trial were between 18 and 70 years of age and were seen within 6 hours of symptom onset with >30 minutes of continuous symptoms. […] After informed consent was obtained, 7 serum samples were drawn. Samples were collected at baseline and at 30-minute intervals during a 180-minute period. Within 15 minutes of sample acquisition, plasma was separated by centrifugation at 800 g for 10 minutes, aspirated, placed in vials, and snapped frozen at −20° C.
Enzyme-linked immunosorbent assay (ELISA) was used according to standard sandwich techniques for CD 31 (sPECAM-1), sVACAM-1, sP-selectin, (R&D Systems Inc. Minneapolis, Minn.), beta-thromboglobulin, Asserachrom® (Diagnostica Stago Inc., Parsippany, N.J.), platelet factor 4 Asserachrom®, thromboxane, and prostacyclin (Cayman Chemical Co., MI). Each sample was measured in duplicate, and the overall intra-assay coefficient of variation was between 3.1%±0.4% and 7.6%±1.0%, with a plasma recovery rate between 89.7% and 98.7%.
(§3) For all comparisons, statistical analyses were done by using repeated measures ANOVA. Post hoc comparison was performed by use of the Bonferroni t-test to identify specific differences in platelet aggregation and receptor expression between patients treated with TNK and t-PA, and controls. The Mann-Whitney U test was used to analyze non-parametric data. Normally distributed data were expressed as mean±SE, and skewed data as median (range). Probability values of P<0.05 were regarded as statistically significant. Linear regression analysis was applied to normally distributed data for all study participants by using the Statview 4.1 program for analysis.
In the ASSENT-2 Platelet Substudy, 21 of the 41 patients enrolled received TNK (30-50 mg), while the remaining 20 received t-PA (40-85 mg). There were no substantial differences in baseline characteristics for the AMI patients.

platelets [4] = test: in vitro whole blood flow cytometry of platelet receptors and platelet-monocyte aggregates; assay type: cell-based, human; settings: TNK 12 μg/mL, t-PA 4 μg/mL
Experimental: as §1
The surface expression of platelet receptors was determined by flow cytometry by using the following monoclonal antibodies: CD 41 (glycoprotein [GP] IIb/IIIa, α IIbβ3) CD 42b (GP Ib), CD 62p (P-selectin), CD 51/CD 61 (αvβ3, or vitronectin receptor), CD 31 (platelet endothelial cell adhesion molecule [PECAM]-1), CD 107a (LAMP-1), CD 107b (LAMP-2), CD 63 (LIMP or LAMP-3), and CD 151 (PETA-3) (PharMingen, San Diego, Calif.). Platelet-leukocyte interactions were assessed by using dual antibodies for a pan-platelet marker (CD 41), together with CD 14, a monocyte/macrophage marker. The blood-citrate mixture (50 μl) was diluted with 450 μl Tris buffered saline (TBS) (10 mmol/L Tris, 0.15 mol/L sodium chloride) and mixed by gently inverting an Eppendorf tube 2 times. The corresponding antibody was then added (5 μl) and incubated at 4° C. for 30 minutes. After incubation, 400 μl of 2% buffered paraformaldehyde was added for fixation. The samples were analyzed on a Becton Dickinson FACScan flow cytometer set up to measure fluorescent light scatter, as previously described. All parameters were collected by using 4-decade logarithmic amplification. The data were collected in list mode files and then analyzed. P-selectin was expressed as percent positive cells. Other antigens were expressed as log mean fluorescence intensity.
as §3

platelets [5] = test: in vitro whole blood aggregometry (impedance); assay type: cell-based, human; settings: 5 μg/mL collagen; TNK 12 μg/mL, t-PA 4 μg/mL
Experimental: (§4) Blood samples for the in vitro study were obtained from 9 healthy volunteers. None of the subjects smoked or had hypertension, diabetes, or an abnormal hematocrit. None had received aspirin or any other antiplatelet drugs. All subjects underwent blood sampling after at least 30 minutes of rest and 2 or more hours of fasting. Blood was drawn from an antecubital vein between 8 am and 10 am in order to avoid any diurnal influence. A 21-gauge butterfly needle was used to draw blood into a tube containing 3.8% sodium citrate (1:9 volume); the first 1.5 mL of free running blood was discarded. One tube was kept as an internal control. A second tube was incubated with tenecteplase (TNK) for 30 minutes at room temperature in order to achieve a final concentration of 12 μg/mL. […]
Whole blood samples were prepared as follows: whole blood citrate mixture was diluted 1:1 with 0.5 mL Tyrode's buffer solution, then swirled gently. […] Platelet aggregability was expressed as the change in electrical impedance and is expressed in ohms. Aggregation curves were recorded for 6 minutes and analyzed by use of Aggrolink® software (Chrono-log Corporation).
as §2

platelets [6] = test: in vitro comparison of TNK versus t-PA on platelet activation and surface receptor expression (15 parameters); assay type: cell-based, human; settings: TNK 12 μg/mL, t-PA 4 μg/mL, 30 minutes
Experimental: as §4
For the platelet aggregation (PA) studies, platelet-rich plasma (PRP) was first isolated. […] Platelet counts were determined for each PRP sample with a Coulter Counter ZM (Coulter Co., Hialeah, Fla.). […] Platelet aggregation was determined by using a 4 channel Chrono-log Lumi-Aggregometer (model 560-Ca) and expressed as the maximum percentage of light transmittance change (% max) from the baseline at the end of the recording time. […] Platelet aggregability curves were recorded for 6 minutes and analyzed according to internationally established standards (see, e.g., Ruggeri, Z. M. (1994) Semin. Hemat. 31:229-239). […]

B1: TNK: form of tissue plasminogen activator, thrombolytic agent (Genentech) (protein, UniProt P00750 36-562, looked up, variant T103N N117Q K296A H297A R298A R299A)
Tissue-type plasminogen …: SYQVICRDEKTQMIYQQHQSWLRPVLRSNRVEYCWCNSGRAQCHSVPVKSCSEPRCFNGGTCQQALYFSDFVCQCPEGFAGKCCEIDTRATCYEDQGISYRGNWSTAESGAECTNWQSSALAQKPYSGRRPDAIRLGLGNHNYCRNPDRDSKPWCYVFKAGKYSSEFCSTPACSEGNSDCYFGNGSAYRGTHSLTESGASCLPWNSMILIGKVYTAQNPSAQALGLGKHNYCRNPDGDAKPWCHVLKNRRLTWEYCDVPSCSTCGLRQYSQPQFRIKGGLFADIASHPWQAAIFAAAAASPGERFLCGGILISSCWILSAAHCFQERFPPHHLTVILGRTYRVVPGEEEQKFEVEKYIVHKEFDDDTYDNDIALLQLKSDSSRCAQESSVVRTVCLPPADLQLPDWTECELSGYGKHEALSPFYSERLKEAHVRLYPSSRCTSQHLLNRTVTDNMLCAGDTRSGGPQANLHDACQGDSGGPLVCLNDGRMTLVGIISWGLGCGQKDVPGVYTKVTNYLDWIRDNMRP
closure time (PFA-100) compared with DPBS (platelets [1]): prolongation | closure time with the ADP/collagen cartridge (PFA-100), TNK versus t-PA samples (platelets [1]): extension | platelet activation units (Ultegra) compared with DPBS (platelets [2]): reduction | platelet activation with the Ultegra analyzer, TNK versus t-PA samples (platelets [2]): statistically significant decrease | P-selectin plasma concentrations ([3]; 30-60 minutes): immediate increase | P-selectin plasma concentrations ([3]; 120-150 minutes): significant decrease | P-selectin plasma concentrations ([3]; 180 minutes): rebound | plasma levels of PECAM-1 ([3]; AMI patients after thrombolysis): significantly inhibited | release of substances from platelets (plasma biomarkers) ([3]; TNK 30-50 mg, t-PA 40-85 mg, 180-minute period): decreased release | vascular cell adhesion molecule-1 (VCAM-1) release ([3]; after 90 minutes): inhibited significantly | inhibition of thromboxane formation, TNK versus t-PA ([3]; human, in vivo): significantly stronger | pattern of prostacyclin release, between the agents ([3]; human, in vivo): very similar | plasma concentrations of prostacyclin ([3]; human, in vivo): significant and early decrease | plasma concentrations of thromboxane ([3]; human, in vivo): significant and early decrease | prevention of platelet activation, TNK versus t-PA group ([3]; human, in vivo): stronger prevention of platelet activation | CD 151 expression, TNK versus t-PA samples (platelets [4]): Significant reduction | PECAM-1 expression, TNK versus t-PA samples (platelets [4]): Significant reduction | expression of PECAM-1 compared with saline-treated samples (platelets [4]): trend toward diminished expression | expression of glycoprotein IIb/IIIa compared with saline-treated samples (platelets [4]): reduced expression | formation of platelet-monocyte aggregates compared with saline-treated samples (platelets [4]): trend toward diminished | formation of platelet-monocyte aggregates, TNK versus t-PA (platelets [4]): lower | glycoprotein IIb/IIIa expression, TNK versus t-PA samples (platelets [4]): Significant reduction | vitronectin receptor expression, TNK versus t-PA samples (platelets [4]): Significant reduction | whole blood aggregometry, TNK versus t-PA samples (platelets [5]): statistically significant decrease | platelet function, 10 of 15 parameters, compared with baseline DPBS values (platelets [6]): diminished platelet function
